Results on 2 substances are retold here after doi:10.1101/2023.02.03.526950.

Test [1] concerns the target PXN/paxillin, exogenously expressed in HEK293T cells (human) (UniProt P49023). Nature of the test: cross-linking.
Test [2] addresses recombinant PXN WT (human) (UniProt P49023). The test can be described thus: SEC-MALS. In general terms: In gel filtration, larger molecules generally elute earlier.

The term stoichiometry N denotes the number of molecules, sites or subunits per partner or assembly.

In test [1], “PXN/paxillin, exogenously expressed in HEK293T cells (from UniProt P49023-2 1-557) (natural protein)” yielded a stoichiometry N of 2.
For the substance “recombinant PXN WT (from UniProt P49023-2 1-557) (natural protein)”, the stoichiometry N in test [2] worked out at 2.
